Assay results: patent publication US20150353911

thrombin was tested, and the “clotting activity by ROTEM in human hemophilia A blood” value (FVII-184) was “Inactivating the thrombin cleavage site of FVII133 considerably reduced the activity; as the activity of FVII-184, which only became detectable at 50 nM, was much lower than that of FVIIa”, the “cleavage rate with 14 nM thrombin (HPLC, decrease of peptide peak area)” value (Compound 1) was “at least 10-fold increase in cleavage rate compared to that of Compound 2” and the “fraction cleaved and released with 1.4 nM thrombin (HPLC)” value (Compound 1) was 30% of Compound 1 was quickly cleaved and released. For the same substance, the “cleavage by 1.4 nM thrombin (HPLC)” value (Compound 4) was “Compound 1 was a better substrate for thrombin than Compounds 4 and 5”, the “cleavage by 1.4 nM thrombin (HPLC)” value (Compound 5) was “Compound 1 was a better substrate for thrombin than Compounds 4 and 5” and the “release of peptide IVGGQE with 1.4 nM thrombin (HPLC)” value (Compound 6) was “thrombin-mediated release of peptide IVGGQE from Compound 6 without PABC linker was not observed”. The “amidolytic activity (chromozyme t-PA substrate) before and after thrombin activation” value (FVII-133) was “FVII-212 displayed no activity prior to thrombin activation. Following thrombin activation, the amidolytic activity associated with FVII-212 was greater than that observed for equal molar levels of rFVIIa”.
